Target: T161 phosphorylated CDK1 (full-length human CDK1) (human, UniProt P06493 1-297, phosphothreonine at T161)
Assay: SEC

B1: Human cyclin B1, residues 165-433 carrying the C167S/C238S/C350S mutations (domain or fragment)
chain: NLSSEYVKDIYAYLRQLEEEQAVRPKYLLGREVTGNMRAILIDWLVQVQMKFRLLQETMYMTVSIIDRFMQNNSVPKKMLQLVGVTAMFIASKYEEMYPPEIGDFAFVTDNTYTKHQIRQMEMKILRALNFGLGRPLPLHFLRRASKIGEVDVEQHTLAKYLMELTMLDYDMVHFPPSQIAAGAFSLALKILDNGEWTPTLQHYLSYTEESLLPVMQHLAKNVVMVNQGLTKHMTVKNKYATSKHAKISTLPQLNSALVQDLAKAVAKV
- binding result: binds

Source: publication doi:10.1101/2022.05.24.493195 (bioRxiv, 2022)
